The test system of one series is T1, Int12 serine integrase.
T1 sequence: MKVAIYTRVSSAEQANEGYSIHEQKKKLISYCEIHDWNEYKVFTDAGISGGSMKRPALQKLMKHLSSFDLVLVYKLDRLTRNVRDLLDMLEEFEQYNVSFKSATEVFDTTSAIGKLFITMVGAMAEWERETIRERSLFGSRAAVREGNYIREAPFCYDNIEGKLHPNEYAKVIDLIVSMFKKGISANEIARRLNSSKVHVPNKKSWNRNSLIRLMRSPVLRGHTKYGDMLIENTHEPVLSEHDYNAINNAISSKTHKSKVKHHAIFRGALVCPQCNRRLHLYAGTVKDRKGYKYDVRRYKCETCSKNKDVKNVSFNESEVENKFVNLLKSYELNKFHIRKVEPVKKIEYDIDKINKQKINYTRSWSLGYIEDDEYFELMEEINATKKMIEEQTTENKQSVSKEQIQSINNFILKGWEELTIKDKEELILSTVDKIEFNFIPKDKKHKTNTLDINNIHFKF
In words: cell_activity. Conditions: flipping in <1 day in mouse gut with rhamnose; also inversion by PCR in vitro culture.

In series [1] the test system is RhaR (AraC/XylS-family activator) (Bacteroides thetaiotaomicron). As to the kind of experiment: cell_activity. Conditions: printed 104-fold (10^4); rhamnose-induced NanoLuc; K=0.3 mM rhamnose, n=1.4.
The target of series [2] is T2, LacIQ repressor (Escherichia coli, UniProt P03023 SEQ:5-363). In words: cell_activity; fold induction by IPTG; K=6 uM IPTG. Conditions: expressed from PBT1311 in B. thetaiotaomicron; chain copies: 4. The text has this:
(§1) Next, an IPTG-inducible system was developed. Pairs of LacO1 operator sites were inserted in the strong PcfxA promoter in three locations: upstream of the −33 element (O1), between the −33 and −7 elements (O2) or just downstream of the transcription start site (O3) (FIGS. 7A-7B).

In series [3] the target is T2, LacIQ repressor. As to the kind of experiment: cell_activity; fold induction by IPTG; K=86 uM IPTG. The conditions noted are these: expressed from PBT1311 in B. thetaiotaomicron; chain copies: 4.
From the text: as §1

Four molecules from patent publication US20180163216, “GENE EXPRESSION IN BACTEROIDES” (Massachusetts Institute of Technology, published 2018) can be followed below.

Some results are limits rather than exact numbers.

T2 sequence (P03023 2-360): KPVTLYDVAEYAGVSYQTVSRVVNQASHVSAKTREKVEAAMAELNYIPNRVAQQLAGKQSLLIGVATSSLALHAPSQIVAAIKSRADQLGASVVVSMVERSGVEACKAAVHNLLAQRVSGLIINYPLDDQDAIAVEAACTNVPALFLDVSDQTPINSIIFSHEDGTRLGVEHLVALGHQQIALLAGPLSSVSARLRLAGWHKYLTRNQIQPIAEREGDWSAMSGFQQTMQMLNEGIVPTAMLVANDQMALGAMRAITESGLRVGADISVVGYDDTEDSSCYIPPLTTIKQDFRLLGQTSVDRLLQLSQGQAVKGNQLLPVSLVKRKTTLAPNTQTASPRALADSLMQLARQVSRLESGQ

Turning to Int12 attB/attP in memory array, in the series with Int12 serine integrase, the activity is greater than 90%.

As for “TATTTCGGAGAAAACATGCATAAATCATGCTTTTTTTGCATAAAAAGTAAAATTTATACTGATGTAAGGTTTGGCTATGCAGATTTGTGTCAAAATGCACATCCTTTCTATCAAAATGCGTAAGGAAAAGGAGGAAGGAACCGCCTATCTTTGCAATGTAGGTAAATGGATACCTTAAATATATAGACAAAATACC (double strand) [PBT3763]”, the activity in series [1] was 10000 fold.

B1: PLacO23 (dsDNA)
DNA 1: TTACAAAGAAAATTCGACAAACTGTTATTTTTCTATCTATTTATTTGAATTGTGAGCGGATAACAATTACCTTTGTCGGCAATTGTGAGCGGATAACAATTAAATAAAGATATTCTCGTCAAACAAATATAAATAATATAAAC
DNA 2: GTTTATATTATTTATATTTGTTTGACGAGAATATCTTTATTTAATTGTTATCCGCTCACAATTGCCGACAAAGGTAATTGTTATCCGCTCACAATTCAAATAAATAGATAGAAAAATAACAGTTTGTCGAATTTTCTTTGTAA
B1 registered an activity with LacIQ repressor [2] of 22 fold.

B2: PLacO13 (dsDNA)
DNA 1: TTACAAAGAAAATTCGACAAACTGTTATTTTTCTATCTATTTAAATTGTGAGCGGATAACAATTTGGGTGGGAAACTTTAGTTATGTACCTTTGTCGGCAATTGTGAGCGGATAACAATTAAATAAAGATATTCTCGTCAAACAAATATAAATAATATAAAC
DNA 2: GTTTATATTATTTATATTTGTTTGACGAGAATATCTTTATTTAATTGTTATCCGCTCACAATTGCCGACAAAGGTACATAACTAAAGTTTCCCACCCAAATTGTTATCCGCTCACAATTTAAATAGATAGAAAAATAACAGTTTGTCGAATTTTCTTTGTAA
As to B2, in the series with LacIQ repressor [3], the activity amounted to 8 fold.
